# Reference: US7211424B1, “Mammalian Subtilisin/kexin isozyme SKI-1: a proprotein convertase with a unique cleavage specificity” (Institut de Recherches Cliniques de Montreal, priority 1999, dated 2007)
# Where no end group is shown, it is not given here. [ ]: non-standard residue; d: D form. Tyr(3-NO2) = N[C@@H](Cc1ccc(O)c([N+](=O)[O-])c1)C(=O)O; 2Abz = Nc1ccccc1C(=O)O
# T1: 98 kDa shed form of SKI-1 (sSKI-1) (human, UniProt Q14703 187-996)
# T1 sequence: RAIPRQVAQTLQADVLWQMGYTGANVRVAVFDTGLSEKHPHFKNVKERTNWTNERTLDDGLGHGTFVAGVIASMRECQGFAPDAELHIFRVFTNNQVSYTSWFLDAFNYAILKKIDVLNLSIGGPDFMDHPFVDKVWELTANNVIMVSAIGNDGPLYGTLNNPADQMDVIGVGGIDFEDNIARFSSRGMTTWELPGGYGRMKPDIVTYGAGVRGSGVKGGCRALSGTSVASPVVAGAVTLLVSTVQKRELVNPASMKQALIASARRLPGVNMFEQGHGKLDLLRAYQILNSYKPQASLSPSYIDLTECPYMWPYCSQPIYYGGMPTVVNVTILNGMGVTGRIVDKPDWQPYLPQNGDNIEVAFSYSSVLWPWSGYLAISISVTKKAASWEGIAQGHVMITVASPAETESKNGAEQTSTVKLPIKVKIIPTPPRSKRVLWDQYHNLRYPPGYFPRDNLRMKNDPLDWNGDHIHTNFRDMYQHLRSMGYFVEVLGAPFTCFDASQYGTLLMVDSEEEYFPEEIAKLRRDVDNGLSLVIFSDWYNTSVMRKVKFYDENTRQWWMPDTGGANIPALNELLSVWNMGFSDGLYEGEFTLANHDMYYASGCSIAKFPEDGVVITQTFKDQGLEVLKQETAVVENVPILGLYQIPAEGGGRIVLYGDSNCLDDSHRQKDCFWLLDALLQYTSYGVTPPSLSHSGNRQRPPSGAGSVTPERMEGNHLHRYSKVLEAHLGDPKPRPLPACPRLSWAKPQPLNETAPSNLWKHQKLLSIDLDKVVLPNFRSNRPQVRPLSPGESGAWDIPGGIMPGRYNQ
# T2: BTMD-SKI-1 (human, UniProt Q14703 187-997)
# T2 construct: The construct encodes aa 1-997 plus hexa-His; It was secreted from VV-infected BSC40 or LoVo cells and used as concentrated medium or after metal chelation purification; The secreted enzyme stays associated with the ~14 kDa prosegment fragment; also called bSKI-1; BTMD-hSKI-1
# T2 sequence: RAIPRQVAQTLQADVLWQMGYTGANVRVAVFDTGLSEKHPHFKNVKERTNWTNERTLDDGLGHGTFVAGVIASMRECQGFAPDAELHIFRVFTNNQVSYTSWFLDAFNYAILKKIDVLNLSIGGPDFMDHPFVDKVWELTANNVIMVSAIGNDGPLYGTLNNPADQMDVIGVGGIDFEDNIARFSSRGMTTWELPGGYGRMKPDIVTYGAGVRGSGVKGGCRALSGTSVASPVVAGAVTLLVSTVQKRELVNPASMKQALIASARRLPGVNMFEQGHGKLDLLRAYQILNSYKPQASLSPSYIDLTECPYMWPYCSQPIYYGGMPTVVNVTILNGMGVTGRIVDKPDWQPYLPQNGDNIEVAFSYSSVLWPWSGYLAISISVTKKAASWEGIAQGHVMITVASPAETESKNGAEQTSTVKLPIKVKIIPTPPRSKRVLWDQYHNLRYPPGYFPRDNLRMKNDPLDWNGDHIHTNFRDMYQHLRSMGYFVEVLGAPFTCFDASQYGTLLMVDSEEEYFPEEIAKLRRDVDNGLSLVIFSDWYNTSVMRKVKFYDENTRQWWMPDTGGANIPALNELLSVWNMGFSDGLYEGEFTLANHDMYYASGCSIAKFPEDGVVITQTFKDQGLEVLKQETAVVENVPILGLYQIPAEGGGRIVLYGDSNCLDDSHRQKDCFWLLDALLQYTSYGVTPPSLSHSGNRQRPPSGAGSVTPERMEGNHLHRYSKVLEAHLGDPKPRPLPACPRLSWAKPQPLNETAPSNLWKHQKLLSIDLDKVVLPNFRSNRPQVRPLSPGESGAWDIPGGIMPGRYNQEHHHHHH
# T3: BTMD-hSKI-1 (Homo sapiens, UniProt Q14703)
# T3 sequence (Q14703 187-997 limits assumed): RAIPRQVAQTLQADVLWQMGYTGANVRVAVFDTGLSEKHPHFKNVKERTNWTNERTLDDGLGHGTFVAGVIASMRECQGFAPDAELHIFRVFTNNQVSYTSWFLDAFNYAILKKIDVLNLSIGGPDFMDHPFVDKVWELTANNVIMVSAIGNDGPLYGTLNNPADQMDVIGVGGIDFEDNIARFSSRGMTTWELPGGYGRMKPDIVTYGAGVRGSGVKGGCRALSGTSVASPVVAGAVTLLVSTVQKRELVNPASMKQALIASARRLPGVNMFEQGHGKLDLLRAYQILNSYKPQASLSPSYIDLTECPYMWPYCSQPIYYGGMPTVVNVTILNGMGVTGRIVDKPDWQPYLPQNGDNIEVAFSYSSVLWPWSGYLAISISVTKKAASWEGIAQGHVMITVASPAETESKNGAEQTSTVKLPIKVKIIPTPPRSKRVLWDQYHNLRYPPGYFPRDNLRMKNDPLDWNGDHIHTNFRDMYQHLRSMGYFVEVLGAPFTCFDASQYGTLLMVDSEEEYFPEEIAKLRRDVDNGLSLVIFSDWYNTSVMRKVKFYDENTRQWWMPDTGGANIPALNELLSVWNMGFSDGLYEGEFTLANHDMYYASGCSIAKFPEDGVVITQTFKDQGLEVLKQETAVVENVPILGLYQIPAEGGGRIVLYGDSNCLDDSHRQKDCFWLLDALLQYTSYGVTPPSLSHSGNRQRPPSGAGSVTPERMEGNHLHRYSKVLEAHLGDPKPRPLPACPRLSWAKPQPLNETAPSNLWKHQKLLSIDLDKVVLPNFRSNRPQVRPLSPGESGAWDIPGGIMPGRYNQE
# B1: peptide XI, Q-hSKI-1 (134-142): Abz-RSLKYAESD-Y(NO2)-A (peptide)
# peptide: [2Abz]RSLKYAESD[Tyr(3-NO2)]A-NH2
# modifications: N-terminus assumed
# SMILES: CC(C)C[C@H](NC(=O)[C@H](CO)NC(=O)[C@H](CCCNC(=N)N)NC(=O)c1ccccc1N)C(=O)N[C@@H](CCCCN)C(=O)N[C@@H](Cc1ccc(O)cc1)C(=O)N[C@@H](C)C(=O)N[C@@H](CCC(=O)O)C(=O)N[C@@H](CO)C(=O)N[C@@H](CC(=O)O)C(=O)N[C@@H](Cc1ccc(O)c([N+](=O)[O-])c1)C(=O)N[C@@H](C)C(N)=O
# B2: PS2 (SKI-1 prosegment construct extending to Ala188, hexa-His tag) (other)
# chain: KKHLGDRLEKKSFEKAPCPGCSHLTLKVEFSSTVVEYEYIVAFNGYFTAKARNSFISSALKSSEVDNWRIIPRNNPSSDYPSDFEVIQIKEKQKAGLLTLEDHPNIKRVTPQRKVFRSLKYAESDPTVPCNETRWSQKWQSSRPLRRASLSLGSGFWHATGRHSSRRLLRAHHHHHH
# notes: Bacterial recombinant (pET24b, E. coli BL21); The start at aa 18 follows the sense primer and claim 3; Any vector-derived residues are not described
# B3: BTMD-hSKI-1 (Homo sapiens) (protein)
# chain: RAIPRQVAQTLQADVLWQMGYTGANVRVAVFDTGLSEKHPHFKNVKERTNWTNERTLDDGLGHGTFVAGVIASMRECQGFAPDAELHIFRVFTNNQVSYTSWFLDAFNYAILKKIDVLNLSIGGPDFMDHPFVDKVWELTANNVIMVSAIGNDGPLYGTLNNPADQMDVIGVGGIDFEDNIARFSSRGMTTWELPGGYGRMKPDIVTYGAGVRGSGVKGGCRALSGTSVASPVVAGAVTLLVSTVQKRELVNPASMKQALIASARRLPGVNMFEQGHGKLDLLRAYQILNSYKPQASLSPSYIDLTECPYMWPYCSQPIYYGGMPTVVNVTILNGMGVTGRIVDKPDWQPYLPQNGDNIEVAFSYSSVLWPWSGYLAISISVTKKAASWEGIAQGHVMITVASPAETESKNGAEQTSTVKLPIKVKIIPTPPRSKRVLWDQYHNLRYPPGYFPRDNLRMKNDPLDWNGDHIHTNFRDMYQHLRSMGYFVEVLGAPFTCFDASQYGTLLMVDSEEEYFPEEIAKLRRDVDNGLSLVIFSDWYNTSVMRKVKFYDENTRQWWMPDTGGANIPALNELLSVWNMGFSDGLYEGEFTLANHDMYYASGCSIAKFPEDGVVITQTFKDQGLEVLKQETAVVENVPILGLYQIPAEGGGRIVLYGDSNCLDDSHRQKDCFWLLDALLQYTSYGVTPPSLSHSGNRQRPPSGAGSVTPERMEGNHLHRYSKVLEAHLGDPKPRPLPACPRLSWAKPQPLNETAPSNLWKHQKLLSIDLDKVVLPNFRSNRPQVRPLSPGESGAWDIPGGIMPGRYNQE
# B4: peptide X, Q-hSKI-1 (132-142): Abz-VFRSLKYAESD-Y(NO2)-A (peptide)
# peptide: [2Abz]VFRSLKYAESD[Tyr(3-NO2)]A-NH2
# modifications: N-terminus assumed
# SMILES: CC(C)C[C@H](NC(=O)[C@H](CO)NC(=O)[C@H](CCCNC(=N)N)NC(=O)[C@H](Cc1ccccc1)NC(=O)[C@@H](NC(=O)c1ccccc1N)C(C)C)C(=O)N[C@@H](CCCCN)C(=O)N[C@@H](Cc1ccc(O)cc1)C(=O)N[C@@H](C)C(=O)N[C@@H](CCC(=O)O)C(=O)N[C@@H](CO)C(=O)N[C@@H](CC(=O)O)C(=O)N[C@@H](Cc1ccc(O)c([N+](=O)[O-])c1)C(=O)N[C@@H](C)C(N)=O
# B5: PS3 (SKI-1 prosegment construct extending to Leu197, hexa-His tag) (other)
# chain: KKHLGDRLEKKSFEKAPCPGCSHLTLKVEFSSTVVEYEYIVAFNGYFTAKARNSFISSALKSSEVDNWRIIPRNNPSSDYPSDFEVIQIKEKQKAGLLTLEDHPNIKRVTPQRKVFRSLKYAESDPTVPCNETRWSQKWQSSRPLRRASLSLGSGFWHATGRHSSRRLLRAIPRQVAQTLHHHHHH
# notes: Bacterial recombinant (pET24b, E. coli BL21); Any vector-derived residues are not described
# Key:
# [1] = target: T1, 98 kDa shed form of SKI-1 (sSKI-1); assay: cell-based or functional assay
# BTMD-SKI-1 = target: T2, BTMD-SKI-1; assay: Ki(app) from Dixon plots; inhibition of peptide IV hydrolysis by BTMD-SKI-1 medium (RP-HPLC), prosegment preincubated with the enzyme for 30 min
# BTMD-hSKI-1 = target: T3, BTMD-hSKI-1; format: biochemical
# [2] = substrate: CC(C)C[C@H](NC(=O)[C@@H](NC(=O)[C@H](CO)NC(=O)[C@H](CCCNC(=N)N)NC(=O)CNC(=O)[C@H](CO)NC(=O)CNC(=O)[C@H](CO)NC(=O)[C@H](Cc1c[nH]cn1)NC(=O)[C@@H]1CCCN1C(=O)[C@H](Cc1c[nH]cn1)NC(=O)[C@H](CCC(N)=O)NC(=O)[C@H](CC(=O)O)NC(=O)[C@H](CO)NC(=O)[C@H](CC(=O)O)NC(=O)[C@H](Cc1c[nH]cn1)NC(=O)[C@H](C)NC(=O)CNC(=O)CN)C(C)C)C(=O)N[C@@H](CO)C(=O)N[C@@H](Cc1ccccc1)C(=O)N[C@@H](CCC(=O)O)C(=O)N[C@@H](CO)C(=O)NCC(=O)N[C@@H](CO)C(=O)NCC(=O)NCC(=O)O; assay: purified protein, by the assay type; settings: other: BTMD-SKI-1 medium, times giving 5–30% substrate hydrolysis; averages of duplicate assays; pH 6.5; 37.0 °C
# [3] = substrate: CC(C)C[C@H](NC(=O)[C@H](C)NC(=O)[C@H](CCCNC(=N)N)NC(=O)[C@H](CC(C)C)NC(=O)[C@H](CC(C)C)NC(=O)[C@H](CCCNC(=N)N)NC(=O)[C@H](CCCNC(=N)N)NC(=O)[C@H](CO)NC(=O)[C@H](CO)NC(=O)[C@H](Cc1c[nH]cn1)NC(=O)[C@H](CCCNC(=N)N)NC(=O)CNC(=O)[C@@H](NC(=O)[C@H](C)NC(=O)[C@H](Cc1c[nH]cn1)NC(=O)[C@@H](N)Cc1c[nH]c2ccccc12)[C@@H](C)O)C(=O)N[C@@H](CCC(=O)O)C(N)=O; assay: purified protein, by the assay type; settings: other: BTMD-SKI-1 medium, times giving 5–30% substrate hydrolysis; averages of duplicate assays; pH 6.5; 37.0 °C
# [4] = substrate: CC(C)C[C@H](NC(=O)[C@H](C)NC(=O)[C@H](CCCNC(=N)N)NC(=O)[C@H](CC(C)C)NC(=O)[C@H](CC(C)C)NC(=O)[C@H](CCCNC(=N)N)NC(=O)[C@H](CCCNC(=N)N)NC(=O)[C@@H](N)CO)C(=O)N[C@@H](CCC(=O)O)C(N)=O; assay: purified protein, by the assay type; settings: other: BTMD-SKI-1 medium, times giving 5–30% substrate hydrolysis; averages of duplicate assays; pH 6.5; 37.0 °C
molecule,measurement,setting,value
B1,kinetic parameters relative to peptide IV,[1],~16 fold
B2,Ki,BTMD-SKI-1,97.5 nM
same,inhibitory potency after digestion with carboxypeptidase B to eliminate the His-tag,BTMD-hSKI-1,not affected
same,Ki,BTMD-hSKI-1; read-out: Ki(app),97 nM
B3,Km,[2],124 nM*1000
same,Vmax,[2],8.33e-06 µmol/min
same,Km,[3],17 nM*1000
same,Vmax,[3],6.67e-06 µmol/min
same,Km,[4],109 nM*1000
same,Vmax,[4],1.83e-05 µmol/min
B4,kinetic parameters relative to peptide IV,[1],~3 fold
B5,Ki,BTMD-SKI-1,127 nM
